As a reminder, the Kd is the free concentration of one partner at which half of the binding sites on the other are occupied at equilibrium, for simple one-to-one binding. Low values mean tighter binding, high ones weaker binding. As usually defined, the IC50 is the point on the concentration scale where inhibition reaches its midpoint.

Assay [1] deals with human GITR expressed on cells (human) (UniProt Q9Y5U5). Put plainly: FACS, Alexa488-labeled antibody on PHA-stimulated human PBMCs. In general terms: Flow cytometry measures light scatter and fluorescence of single cells or particles in a stream.
Chain of human GITR expressed on cells (human) (Q9Y5U5 26-241): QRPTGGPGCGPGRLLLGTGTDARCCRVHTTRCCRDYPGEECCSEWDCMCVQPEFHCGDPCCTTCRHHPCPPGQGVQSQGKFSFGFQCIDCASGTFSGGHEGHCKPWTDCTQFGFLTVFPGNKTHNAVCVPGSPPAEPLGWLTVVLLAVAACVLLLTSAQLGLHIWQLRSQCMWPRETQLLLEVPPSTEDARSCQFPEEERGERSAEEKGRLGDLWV
Assay [2] shares this target. Put plainly: cell-based or functional assay.
The target in assay [3] is human GITR-Fc fusion protein (human) (UniProt Q9Y5U5). Put plainly: competition ELISA, GITRL coated, GITR-Fc 0.25 µg/mL pre-incubated with antibody. (In an ELISA, binding on a coated surface is turned into a signal by an enzyme label.)
Chain of human GITR-Fc fusion protein (human) (Q9Y5U5 26-162): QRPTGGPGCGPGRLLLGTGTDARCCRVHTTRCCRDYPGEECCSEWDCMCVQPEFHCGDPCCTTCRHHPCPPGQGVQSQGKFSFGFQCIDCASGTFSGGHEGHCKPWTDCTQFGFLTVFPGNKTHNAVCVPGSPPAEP

Take “MAB689 (R&D Systems), commercial anti-GITR antibody”: in assay [1], the Kd is 1.66 nM. The substance also yielded an inhibition of NFkB signal transduction (luciferase reporter) at 300 ng/ml in assay [2] of 18%. In assay [3], this substance came in with an IC50 of 13.9 nM.

Values taken from US20130108641A1.
